Experimental data: US20100204100A1, “BIOLOGICAL AGENTS ACTIVE IN CENTRAL NERVOUS SYSTEM” (THE JOHNS HOPKINS UNIVERISTY, priority 2007, published 2010)
Positions count from the first letter of the chain named. Names may count otherwise. “Also recorded” adds a separate entry of the source.

B1: Tat-PSD-95 PDZ2: His-tagged fusion peptide: HIV Tat minimal transduction domain (residues 47-57) fused to the second PDZ domain of PSD-95 (protein)
chain: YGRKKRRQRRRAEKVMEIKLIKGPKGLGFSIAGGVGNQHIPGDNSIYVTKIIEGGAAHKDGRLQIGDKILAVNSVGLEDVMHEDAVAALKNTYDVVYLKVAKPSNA
B2: mutated Tat-PSD-95 PDZ2: Control fusion peptide: Tat-PSD-95 PDZ2 with three sites critical for NMDAR/PSD-95 interaction mutated (K165T, L170R and H182L) (protein)
chain: B1 chain with K22T, L27R, H39L
B3: PSD-95 PDZ2: Control peptide containing the same sequences as Tat-PSD-95 PDZ2 but without Tat PTD (protein)
chain: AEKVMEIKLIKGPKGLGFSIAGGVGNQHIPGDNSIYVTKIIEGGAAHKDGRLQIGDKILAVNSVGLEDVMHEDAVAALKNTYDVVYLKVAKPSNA

Tests used:
[1] = In vivo CNS / spinal cord distribution of Tat fusion peptides after intraperitoneal injection (Western blot, immunohistochemistry); set-up: species or system mouse; conditions: mice; for delivery into lumbar spinal cord, Western blot: 4 h after intraperitoneal injection; for delivery into cerebral cortex, hippocampus and lumbar spinal cord, Western blotting: 4 h after intraperitoneal injection (data not shown); for distribution in the spinal cord, immunohistochemical staining: after intraperitoneal injection; for dose dependence of delivery into the spinal cord, Western blot: intraperitoneal 2, 4, 8 mg/kg
Description: In Vivo Systemic Administration and Spinal Cord Distribution of Tat Fusion Peptides. Western blot analysis and immunohistochemistry were used to detect the spinal cord distribution of Tat fusion peptides after systemic administration. The purified fusion peptides at the indicated amounts were injected into mice intraperitoneally in 300 μl of PBS and 10% glycerol, as previously described (Cao, et al., 2002). The mice, assigned randomly to the experimental groups of 6-8, were given Tat-PSD-95 PDZ2 or control peptide (mutated Tat-PSD-95 PDZ2 or PSD-95 PDZ2 without Tat PTD) 4 h before sample collection. For Western blotting, lumbar spinal cord tissues were harvested, homogenized according to standard procedures, and centrifuged at 700×g for 15 min at 4° C. The extracted proteins were resolved by SDS-PAGE, electro-transferred to nitrocellulose membranes, and then immunoblotted with above-mentioned monoclonal anti-His antibody. For immunohistochemistry, sections from the spinal lumbar enlargement segments were fixed in 4% paraformaldehyde (in 0.1 M phosphate buffer, pH 7.4) for 10 min, and then incubated with the monoclonal anti-His antibody. Thereafter, the sections were rinsed with 0.01 M PBS, incubated with fluorescein isothiocyanate-conjugated anti-mouse IgG (1:80; Jackson ImmunoResearch Laboratories) for 1 h at 37° C., and rinsed again with PBS. The sections were imaged with confocal laser scanning microscopy at an excitation wavelength of 488 nm for fluorescein isothiocyanate.
(§1) The purified fusion peptides at the indicated amounts were injected intraperitoneally into mice in 300 μl of phosphate-buffered saline and 10% glycerol. The mice were given Tat-PSD-95 PDZ2 or control peptide (mutated Tat-PSD-95 PDZ2 or PSD-95 PDZ2 without Tat) 4 h before MAC measurement and righting reflex testing. All the animals were assigned randomly to experimental groups consisting of 6-8 animals each. Western blot analysis was then used to verify the CNS delivery of these fusion peptides after intraperitoneal injection.
Cerebral cortex, hippocampus, and lumbar spinal cord were harvested 4 h after intraperitoneal injection of the fusion peptides. Total proteins from these tissues were extracted. In brief, the tissues were removed and homogenized in homogenization buffer^18 (10 mM Tris-HCl, 5 mM MgCl2, 2 mM EGTA, 1 mM phenylmethylsulfonyl fluoride, […] leupeptin, 2 μM pepstatin A, and 320 mM sucrose, pH 7.4). The crude homogenates were centrifuged at 700×g for […] at 4° C. The pellets were rehomogenized and spun again at 700×g, and the supernatants were combined and diluted in resuspension buffer^18 (10 mM Tris-HCl, 5 mM MgCl2, 2 mM EGTA, 1 mM phenylmethylsulfonyl fluoride, 1 μM leupeptin, 2 μM pepstatin A, and 250 mM sucrose, pH 7.4). Next, the protein extracts were resolved by sodium dodecyl sulfate-polyacrylamide gel electrophoresis, electrotransferred to nitrocellulose membranes, and then immunoblotted with monoclonal anti-His antibody (Sigma, St. Louis, Mo.) diluted (1:1,000) in blocking solution containing 3% nonfat dry milk and 0.1% Tween-20 in Tris-HCl-buffered saline for 1 h at room temperature. After extensive washing, the membranes were incubated with horseradish peroxidase-conjugated anti-mouse immunoglobulin (Bio-Rad Laboratories, Hercules, Calif.) at a dilution of 1:3,000 for another 1 h. Specific proteins were detected by enhanced chemiluminescence (Amersham, Piscataway, N.J.). Tubulin served as a loading control and cerebral cortex was used for its detection.

[2] = test system: threshold for halothane anesthesia; assay: Measurement of halothane MAC (tail clamp); format: in vivo, mouse; conditions: mice; for halothane MAC: mean±S.E.M., vehicle 1.12±0.05; for effect on halothane MAC: intraperitoneal injection, dose series
Description: The purified fusion peptides at the indicated amounts were injected intraperitoneally into mice in 300 μl of phosphate-buffered saline and 10% glycerol. The mice were given Tat-PSD-95 PDZ2 or control peptide (mutated Tat-PSD-95 PDZ2 or PSD-95 PDZ2 without Tat) 4 h before MAC measurement and righting reflex testing. All the animals were assigned randomly to experimental groups consisting of 6-8 animals each. Western blot analysis was then used to verify the CNS delivery of these fusion peptides after intraperitoneal injection. Measurement of halothane MAC value was carried out as previously described with minor modification^20-22. Mice were placed in individual Plexiglas chambers 3 h after the injection of the fusion peptides. Each chamber was fitted with a rubber stopper at one end through which the mouse's tail and a rectal temperature probe protruded. Groups of four mice were given halothane in oxygen (4 l/min total gas flow). A gas sample was continuously drawn, and the anesthetic concentration was measured with an agent analyzer (Ohmeda 5250 RGM, Louisville, Colo.). A rectal temperature probe was inserted under light general anesthesia, and temperature was kept at 36˜38° C. with heat lamps throughout the experiment. Mice initially breathed approximately 1.5% halothane for 60 min. […] In each case, the tail was stimulated proximal to the previous test site. Only the middle third of the tail was used for tail-clamping. […] The anesthetic concentration was increased (or decreased) in steps of 0.1% until the positive response disappeared (or vice versa), with 10 min for equilibration allowed after each change of anesthetic concentration. MAC is defined as the concentration midway between the highest concentration that permitted movement in response to the stimulus and the lowest concentration that prevented movement.

[3] = test system: threshold for halothane anesthesia; assay: Determination of halothane RREC50 (righting reflex); format: in vivo, mouse; conditions: mice; for halothane RREC50: mean±S.E.M., vehicle 0.48±0.02; for effect on halothane RREC50: intraperitoneal injection, dose series
Description: as §1, with “injection. Following the measurement of MAC, the halothane concentration was halved for 10 min and the animal turned on its back to test the righting reflex defined as a return onto all four paws within 1 min^20-22. […] RREC50 was calculated for each mouse as the mean value of the anesthetic concentrations that just permitted and just prevented the righting reflex.” for “injection.”

Row | Molecule | delivery into lumbar spinal cord, Western blot [1] | delivery into cerebral cortex, hippocampus and lumbar spinal cord, Western blotting [1] | distribution in the spinal cord, immunohistochemical staining [1] | dose dependence of delivery into the spinal cord, Western blot [1] | dose dependence of delivery into the spinal cord, Western blot ([1]; listed as Tat-P SD-95 PDZ2) | halothane MAC ([2]; 2 mg/kg intraperitoneal) | halothane MAC ([2]; 4 mg/kg intraperitoneal) | effect on halothane MAC compared to the vehicle-treated group ([2]; 8 mg/kg intraperitoneal) | halothane MAC ([2]; 8 mg/kg intraperitoneal) | effect on halothane MAC [2] | halothane RREC50 ([3]; 2 mg/kg intraperitoneal) | halothane RREC50 ([3]; 4 mg/kg intraperitoneal) | halothane RREC50 ([3]; 8 mg/kg intraperitoneal) | effect on halothane RREC50 [3] | effect on halothane RREC50 compared to vehicle-treated group ([3]; two higher doses (4 and 8 mg/kg) intraperitoneal) | difference in PTD-mediated spinal delivery versus Tat-PSD-95 PDZ2 ([1]; intraperitoneal injection, Western blot) | effect on halothane RREC50 compared to vehicle-treated group ([3]; 8 mg/kg intraperitoneal) | delivery into lumbar spinal cord, Western blot ([1]; listed as PSD-95 PDZ2 without Tat)
1 | B1 | delivered into lumbar spinal cord | delivered into cerebral cortex, hippocampus and lumbar spinal cord | distributed in the spinal cord | dose-dependently delivered; also recorded: dose-dependent | dose-dependent | 1.11±0.05 | 0.99±0.05 | significantly reduced | 0.77±0.05 | dose-dependently reduced | 0.45±0.03 | 0.37±0.03 | 0.18±0.02 | dose-dependently reduced | significantly reduced |  |  | 
2 | B2 | delivered into lumbar spinal cord | delivered into cerebral cortex, hippocampus and lumbar spinal cord |  |  |  |  |  | no effect |  | no effect |  |  |  | no effect |  | No significant difference | no effect | 
3 | B3 |  |  | not detected |  |  |  |  | no effect |  | no effect |  |  |  | no effect |  |  | no effect | not detected
